The series addresses T1, OgeuIscB ΔHNH (human gut metagenome (OgeuIscB), UniProt PDB:7XHT_4 1-198+=GGSG+296-496, internal_change).
T1 sequence: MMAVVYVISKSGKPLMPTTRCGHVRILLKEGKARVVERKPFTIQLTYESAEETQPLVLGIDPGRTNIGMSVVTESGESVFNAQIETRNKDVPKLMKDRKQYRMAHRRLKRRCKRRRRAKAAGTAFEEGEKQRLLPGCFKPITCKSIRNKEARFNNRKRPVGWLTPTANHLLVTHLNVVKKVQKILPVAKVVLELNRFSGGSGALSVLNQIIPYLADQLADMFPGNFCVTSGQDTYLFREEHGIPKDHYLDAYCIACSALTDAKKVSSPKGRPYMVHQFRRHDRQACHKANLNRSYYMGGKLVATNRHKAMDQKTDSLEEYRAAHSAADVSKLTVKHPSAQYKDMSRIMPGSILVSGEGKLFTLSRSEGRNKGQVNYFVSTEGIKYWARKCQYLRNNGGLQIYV
The series can be described thus: cryo-EM (2.6 Å); Mg2+ bound in RuvC site; Purification: 20 mM Tris-HCl pH 8.0, NaCl gradient 0.075-2 M (heparin), 10% glycerol, 5 mM MgCl2, 2 mM DTT; cryo-EM sample buffer not in the material. The note with it: protein: recombinant; strand 1 ωRNA, strand 2 TS, strand 3 NTS; NTS pairs with TS nt 1-14; ωRNA guide nt 1-27 complementary to TS nt 15-41 (17 bp resolved); TS 3' tail 8 nt.

B1: ωRNA (233 nt) + partially double-stranded target DNA (TS 49 nt, NTS 14 nt) (mixed)
RNA: GGAAUUGUGAGCGGAUAACAAUUCCCCGGCUCUUCCAACUUUAUGGUUGCGACCGUAGGUUGAAAGAGCACAGGCUGAGACAUUCGUAAGGCCGAAAGACCGGACGCACCCUGGGAUUUCCCCAGUCCCCGGAACUGCAUAGCGGAUGCCAGUUGAUGGAGCAAUCUAUCAGAUAAGCCAGGGGGAACAAUCACCUCUCUGUAUCAGAGAGAGUUUUACAAAAGGAGGAACGG
DNA 1: GAATGGTTTTCTTCGGGGAATTGTTATCCGCTCACAATTCCTTAGAAAA
DNA 2: GAAGAAAACCATTC
Take B1: the binding result is listed as “binds”.
